Measured values from PMC4036362, “Normal Activation of Discoidin Domain Receptor 1 Mutants with Disulfide Cross-links, Insertions, or Deletions in the Extracellular Juxtamembrane Region” (The Journal of Biological Chemistry, 2014).

B1: DDR1 mutant [human] / itself (parent)
chain: DADMKGHFDPAKCRYALGMQDRTIPDSDISASSSWSDSTAARHSRLESSDGDGAWCPAGSVFPKEEEYLQVDLQRLHLVALVGTQGRHAGGLGKEFSRSYRLRYSRDGRRWMGWKDRWGQEVISGNEDPEGVVLKDLGPPMVARLVRFYPRADRVMSVCLRVELYGCLWRDGLLSYTAPVGQTMYLSEAVYLNDSTYDGHTVGGLQYGGLGQLADGVVGLDDFRKSQELRVWPGYDYVGWSNHSFSSGYVEMEFEFDRLRAFQAMQVHSNNMHTLGARLPGGVECRFRRGPAMAWEGEPMRHNLGGNLGDPRARAVSVPLGGRVARFLQCRFLFAGPWLLFSEISFISDVVNNSSPALGGTFPPAPWWPPGPPPTNFSSLELEPRGQQPVAKAEGSPTAILIGCLVAIILLLLLIIALMLWRLHWRRLLSKAERRVLEEELTVHLSVPGDTILINNRPGPREPPPYQEPRPRGNPPHSAPCVPNGSALLLSNPAYRLLLATYARPPRGPGPPTPAWAKPTNTQAYSGDYMEPEKPGAPLLPPPPQNSVPHYAEADIVTLQGVTGGNTYAVPALPPGAVGDGPPRVDFPRSRLRFKEKLGEGQFGEVHLCEVDSPQDLVSLDFPLNVRKGHPLLVAVKILRPDATKNARNDFLKEVKIMSRLKDPNIIRLLGVCVQDDPLCMITDYMENGDLNQFLSAHQLEDKAAEGAPGDGQAAQGPTISYPMLLHVAAQIASGMRYLATLNFVHRDLATRNCLVGENFTIKIADFGMSRNLYAGDYYRVQGRAVLPIRWMAWECILMGKFTTASDVWAFGVTLWEVLMLCRAQPFGQLTDEQVIENAGEFFRDQGRQVYLSRPPACPQGLYELMLRCWSRESEQRPPFSQLHRFLAEDALNTV

Variants of: B1
Assay: disulfide cross-linking, nonreducing SDS-PAGE and Western blotting with anti-DDR1 antibodies
Details: transiently transfected HEK293 cells, lysed in 30 mM NEM, read off a plot
[1] = 10 μg/ml collagen I for 90 min at 37 °C

Row | Variant | screen value [1] [%] | screen value (unstimulated) [%] | screen value (10 μg/ml collagen I for 90 min at 37 °C, dimeric plus higher oligomeric forms) [%] | screen value (unstimulated, dimeric plus higher oligomeric forms) [%]
1 | chain 1 K392C | 76 | 81 | – | –
2 | chain 1 E394C | 72 | 75 | – | –
3 | chain 1 V390C C404A | 85 | – | – | –
4 | chain 1 G403C C404A | 35 | 37 | – | –
5 | chain 1 I400C | 56 | 60 | – | –
6 | chain 1 L405C | 3.5 | 5 | – | –
7 | chain 1 I402C | 62 | 65 | – | –
8 | chain 1 S396C | 82 | 84 | – | –
9 | chain 1 G403C | 30 | 32 | – | –
10 | chain 1 G395C | – | 73 | – | –

Other lines, results leading:

Row | screen value [1] [%] | screen value (unstimulated) [%] | screen value (10 μg/ml collagen I for 90 min at 37 °C, dimeric plus higher oligomeric forms) [%] | screen value (unstimulated, dimeric plus higher oligomeric forms) [%] | Variant
11 | 81 | 83 | – | – | chain 1 E394C C404A
12 | 4.5 | 3.5 | – | – | chain 1 L405C C404A
13 | 81 | 82 | – | – | chain 1 P397C
14 | 80 | 81 | – | – | chain 1 A391C
15 | 59 | 61 | 59 | 61 | chain 1 A399C
16 | 61 | 60 | – | – | chain 1 L401C
17 | 81 | 84 | – | – | chain 1 A393C
18 | 93 | 94 | – | – | chain 1 T398C
19 | – | 4.5 | – | – | chain 1 C404A
20 | 82 | 83 | – | – | chain 1 V390C
